Results: the nanobody polyreactivity screen of Harvey et al. (2022)

experiment: yeast display, Sf9 membrane polyspecificity reagent, FACS + sequencing; frameworks hold sequencing errors
Summary of the method: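 A synthetic nanobody library was expressed on Saccharomyces cerevisiae BJ5465 by galactose induction for 36–48 hours. The library was stained for 1 hour at 4 °C with 10% biotinylated, detergent-solubilized Sf9 membrane reagent and enriched with streptavidin microbeads before FACS. Low and high (top ~1%) gates were set on anti-HA fluorescence for expression and streptavidin fluorescence for reagent binding, and each polyreactivity label reflects the gate of origin.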

Sequence | polyreactivity (PSR sort gate)
QVQLVESGGGLVQAGGSLRLSCAASGSTIERYAMGWYRHAPGKERELVAAIRWSGGSTYYADSVKGRFTISRDNAKNTVYLQMNSLKPEDTAVYYCAASRSNADWFDSWGQGTQVTVSS | high polyreactivity
QVQLVESGGGLVQAGGSLRLSCAASGSTIKYYAMGWYRPAPGKERELVAAISKGATRTYYADSVKGRFTISRDHAKNTVYLQMNSLKPEDTAVYFCAADRLKFPCEYDYWGHGTQVTVSS | high polyreactivity
QVQLVESGGGLVQAGGSLRLSCAASGSTINQYAMGWYRQAPGKERELVAAITRRGGSTYYADSVKGRFTISRDNAKNTVYLQMNSLKPEDTAVYYCAAAYPYTTVSYDYWGQGTQVTVSS | high polyreactivity
QVQLVESGGGLVQAGGSLRLSCAASGSTINYNAMGWYRQAPGKERELVAAIDSGVSTNYADSVKGRFTISRDNAKNTVYFQMNSLKPEDTAVYYCNADPDYFDYWGQGTQVTVSS | low polyreactivity
QVQLVESGGGLVQAGGSLRLSCAASGSTIPLYAMGWYRQAPGKERELVAAISRRGGRTYYADSVKGRFTISRDNAKNSVYLQMNSLKPEDTGVYYCAARYTRRHYDYWGQGTKVTVSS | high polyreactivity
QVQLVESGGGLVQAGGSLRLSCAASGSTIPSYAMGWYRQATGKERELVASITYSDGTTRYADSVKGRFTISRDYAKNTVYFQMYSLKPEDTAVYYCNAVYYREGMDYWGQGTQVSVSS | low polyreactivity
QVQLVESGGGLVQAGGSLRLSCAASGSTIPYYAMGWYRQAPGKERELVATISSSGGSTYYADSVKGRFTISRDNAKNTVYLQMKSLKPEDTAVYYCAARYQTSGFRYRYGYWGQGTQVTVSS | high polyreactivity
QVQLVESGGGLVQAGGSLRLSCAASGSTIQSNMGWYRQAPGKERELVAAITTNGSSTYYADSVKGRFTISRDNAKNTVYLQMNCLKPEDTAVYDCAAGPRYRYYYGWYDYWGQGTQVNVSS | high polyreactivity
QVQLVESGGGLVQAGGSLRLSCAASGSTIRGYAMGWYRQAPGKEREFVAAITVNGGNTYYADSVKGRFTISRDNAKNTVYLQMNSLKPEDTAVYYCNVPVTVGKDSITEHYYWGLGTQVTVSS | low polyreactivity
QVQLVESGGGLVQAGGSLRLSCAASGSTIRGYARGWYRQAPGKEREFVAAITVNGGNTYYAESVKGRFTLSRDNAKNTVYLQMNSLKPEDTEGYYCNVPVTVVKASITEHYYWGQGTQVTVSS | low polyreactivity
QVQLVESGGGLVQAGGSLRLSCAASGSTIRLYAMGWYRQAPGKERELVAAISVSGGSTHYADSVKGRFTISRDNAKNTVYLQMNSLKPEDTAVYYCNAAGNPVSRYHYDYWGQGTQVTVSS | high polyreactivity
QVQLVESGGGLVQAGGSLRLSCAASGSTISGYAMGWYRQAPGKERELVAAISSGGSTYYADSVKGRFTISRDNAKNTVYLQLNSLKPEDTAVFYCNVARSRYRYRYDYWGQGTQVTVSS | high polyreactivity
QVQLVESGGGLVQAGGSLRLSCAASGSTISSNAMGWYRQAPGKERELVAAIDSGGSTYYADSVKGRFTISRDNAKNTVYLQMNSLKPEDTAVYYCNPERETYDTGRAVLPGGYWGQGTQVTVSS | low polyreactivity
QVQLVESGGGLVQAGGSLRLSCAASGSTISYNAMGWYRQAPGKERELVAAIRTSGGRTYYADSVKGRFTISRDNAKNTVYLQMNSLKPEDTAVYYCAKRWVYRYGYEYWGQGTQVTVSS | high polyreactivity
QVQLVESGGGLVQAGGSLRLSCAASGSTITGNTMGWYRQAPGKERELVAAITNGGSTYYADSVKGRFTISRDNAKNTVYLQMNSLKPEDTAVYYCAAESTFYGYDYWGQGTQVTVSS | high polyreactivity
QVQLVESGGGLVQAGGSLRLSCAASGSTITVNDMGWYRQAPGKERELVAAITQRDGRTFYADSVKGRFTISRDNAKNTVYLQMNSLKPVDTSVYYFAADYVWYTYGDYDYWGLGTQVTVSS | low polyreactivity
